Measured values: article PMC11342882

Biological target: FcRn with a C-terminal 6×His-tag and complexed with beta-2-microglobulin (UniProt P55899)
Assay: BLI

| Kd [nM] | Substance |
| --- | --- |
| > 100 | sACE2_(2).v2.4-IgG1 (from UniProt Q9BYF1-1 18-732) (Fc fusion) |
| 21 | sACE2_(2).v2.4-IgG1(YTE) from Expi293F (from UniProt Q9BYF1-1 18-732) (Fc fusion) |
